Biological target: T1, ϕ29 DNA polymerase (wild-type) (bacteriophage ϕ29, UniProt P03680 1-575)
T1 sequence: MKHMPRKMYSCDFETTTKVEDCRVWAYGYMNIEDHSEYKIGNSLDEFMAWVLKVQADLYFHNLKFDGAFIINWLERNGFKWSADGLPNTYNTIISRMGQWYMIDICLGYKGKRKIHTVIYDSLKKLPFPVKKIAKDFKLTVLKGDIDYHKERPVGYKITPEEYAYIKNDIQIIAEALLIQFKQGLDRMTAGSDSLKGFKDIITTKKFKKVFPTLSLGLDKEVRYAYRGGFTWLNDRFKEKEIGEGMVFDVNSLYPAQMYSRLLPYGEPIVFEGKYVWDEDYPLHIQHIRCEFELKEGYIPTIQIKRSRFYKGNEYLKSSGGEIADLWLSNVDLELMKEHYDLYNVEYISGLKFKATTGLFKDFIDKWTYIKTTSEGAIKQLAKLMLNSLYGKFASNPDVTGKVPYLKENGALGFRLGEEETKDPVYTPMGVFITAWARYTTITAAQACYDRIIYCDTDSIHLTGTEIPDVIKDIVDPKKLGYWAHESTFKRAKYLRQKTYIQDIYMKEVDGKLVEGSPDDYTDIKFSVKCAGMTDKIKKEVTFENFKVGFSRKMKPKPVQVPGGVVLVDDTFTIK
Assay: cell-based or functional assay

B1: ϕ29 terminal protein mutant R158A (natural protein, bacteriophage ϕ29, UniProt P03681 1-266, looked up)
chain: MARSPRIRIKDNDKAEYARLVKNTKAKIARTKKKYGVDLTAEIDIPDLDSFETRAQFNKWKEQASSFTNRANMRYQFEKNAYGVVASKAKIAEIERNTKEVQRLVDEKIKAMKDKEYYAGGKPQGTIEQRIAMTSPAHVTGINRPHDFDFSKVRSYSALRTLEESMEMRTDPQYYEKKMIQLQLNFIKSVEGSFNSFDAADELIEELKKIPPDDFYELFLRISEISFEEFDSEGNTVENVEGNVYKILSYLEQYRRGDFDLSLKGF
With B1 the “TP-DNA amplification (%), activity with respect to the wild-type TP” value was 1 % of wild-type TP and the “TP-DNA replication, activity with respect to the wild-type TP” value was 17 % of wild-type TP.

From article PMC3351185 (Nucleic Acids Research, 2011)
